Patent US20260139035A1 (published 2026)
Where a chain is given by its changes, count along the chain named.

B1: 1-58 antibody (antibody, V domains shown)
VH: QVQLVQSGAEVKKPGASVRVSCKASGYSFTASYMHWVRQAPGQGLEWMAIINPGDDNTSYAQKFQGRVTLTRDTSTTTVYMELRSLRSEDTAVYYCTRSTRDYVWGNYRYTPGYYLDYWGQGTLVTVSS
VL: DIRMTQSPSSLSASVGDRVTITCRASQTISNYLNWYQQKPGKAPKLLIYAASSLQSGVPSRFSGSGSGTDFTLTISSLQPEDFATYYCQQGYITPITFGQGTRLEIK
B2: 1-44 antibody (antibody, V domains shown)
VH: EVQLVESGGGVVQPGSSLRLSCAASGFTFRSHAMHWVRQAPGKGLEGVAVIWYDGSNKYYADSVKGRFTISRDNSKNTLYLQMNSLRAEDTAVYYCAREGIAVPGNGADAFDIWGQGTMVTVSS
VL: B1 VL with R3Q, T28S, S30G, Y32F, G91T, I93S, I96Y, R103K
B3: 4-66 antibody (antibody, V domains shown)
VH: EVQLVESGGGLVQPGGSLRLSCAASGIIVSRNYMTWVRQAPGKGLEWVSVIYSGGTTYYADSVKGRFTTSRDDSKNTLYLQMNSLRGDDTAVYYCARDPPHRRGSYWGQGTLVTVSS
VL: DILMTQSPSSLSASVGDRVTITCQASQDINKYLNWYQQKPGKAPKLLIYDASNLETGVPSRFSGSGSGTDFSFTISSLQPEDVATYYCQQSDNLPPTFGQGTNVEIK
B4: 3-1 antibody (antibody, V domains shown)
VH: EVQLVQSGAEVKKPGESLKISCKGSGYIFTNYWIGWVRQMPGKGLEWMGIINPRDSDTRYSPSFQGQVTISTDKSINTAYLQWSSLKASDTAMYYCARQQGGFGDLGAYNWFDPWGQGTLVTVSS
VL: not shown

Molecular target: RBD of the SARS-CoV-2 spike protein (Cayman Chemical kit #502050) (UniProt P0DTC2 319-541)

Binder | IC50 [µg/mL]
B1 | 0.028
B2 | 0.013
B3 | 0.015
B4 | 0.031
